Target: SARS-CoV-2 spike protein (wild type) (SARS-CoV-2, ancestral (wild type, …, UniProt P0DTC2))
Experiment: lateral flow strip assay

B1: REGN10933 (receptor binding domain binding antibody) (antibody, V domains shown)
VH: QVQLVESGGGLVKPGGSLRLSCAASGFTFSDYYMSWIRQAPGKGLEWVSYITYSGSTIYYADSVKGRFTISRDNAKSSLYLQMNSLRAEDTAVYYCARDRGTTMVPFDYWGQGTLVTVSS
VL: DIQMTQSPSSLSASVGDRVTITCQASQDITNYLNWYQQKPGKAPKLLIYAASNLETGVPSRFSGSGSGTDFTFTISGLQPEDIATYYCQQYDNLPLTFGGGTKVEIK
  binding result: binds
